Patent EP4745153A1, “GLP-1, GIP AND GCG RECEPTOR […] USE THEREOF” (Jiangsu Hengrui Pharmaceuticals Co., Ltd., priority 2023, dated 2025)
Starred links: 1 amine or outer side, 2 acyl side, 3 side chain; linkers in the order of their positions; H or OH if unused. Non-standard residues stand in square brackets, D forms with d. Groups on a side chain read outwards from the residue. No end group written: not given here. *: point of attachment. C20 diacid = O=C(O)CCCCCCCCCCCCCCCCCCC(=O)*; γGlu = O=C(O)[C@H](CCC(=O)[*:2])N[*:1]; αMeL = CC(C)C[C@](C)(N)C(=O)O; αMeK = C[C@](N)(CCCCN)C(=O)O; Iva = CC[C@](C)(N)C(=O)O; AEEA = NCCOCCOCC(=O)O; Aib = CC(C)(N)C(=O)O

T1: human glucose-dependent insulinotropic polypeptide receptor (human, UniProt P48546 22-466)
T1 sequence (looked up): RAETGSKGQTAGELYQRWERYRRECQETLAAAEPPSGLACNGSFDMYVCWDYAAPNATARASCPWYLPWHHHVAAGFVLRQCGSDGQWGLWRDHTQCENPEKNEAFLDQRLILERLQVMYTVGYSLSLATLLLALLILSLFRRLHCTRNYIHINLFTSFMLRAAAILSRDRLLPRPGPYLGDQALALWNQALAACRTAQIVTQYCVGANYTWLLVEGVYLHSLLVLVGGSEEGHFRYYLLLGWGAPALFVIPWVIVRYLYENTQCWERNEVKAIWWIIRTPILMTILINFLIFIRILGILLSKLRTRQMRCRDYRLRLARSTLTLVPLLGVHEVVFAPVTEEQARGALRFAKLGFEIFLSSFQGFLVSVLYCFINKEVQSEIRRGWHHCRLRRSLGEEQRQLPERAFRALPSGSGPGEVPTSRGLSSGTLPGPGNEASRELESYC

B1: Compound No. 0133 (peptide)
peptide: H[Aib]HGTFTSDLS[αMeK]LLEK([AEEA-AEEA-γGlu-C20 diacid])KAA[Iva]EFVEWLIEGGPSSGAPPPS-NH2
modifications: N-terminus assumed
SMILES: CC[C@H](C)[C@H](NC(=O)[C@H](CC(C)C)NC(=O)[C@H](Cc1c[nH]c2ccccc12)NC(=O)[C@H](CCC(=O)O)NC(=O)[C@@H](NC(=O)[C@H](Cc1ccccc1)NC(=O)[C@H](CCC(=O)O)NC(=O)[C@](C)(CC)NC(=O)[C@H](C)NC(=O)[C@H](C)NC(=O)[C@H](CCCCN)NC(=O)[C@H](CCCCNC(=O)COCCOCCNC(=O)COCCOCCNC(=O)CC[C@H](NC(=O)CCCCCCCCCCCCCCCCCCC(=O)O)C(=O)O)NC(=O)[C@H](CCC(=O)O)NC(=O)[C@H](CC(C)C)NC(=O)[C@H](CC(C)C)NC(=O)[C@](C)(CCCCN)NC(=O)[C@H](CO)NC(=O)[C@H](CC(C)C)NC(=O)[C@H](CC(=O)O)NC(=O)[C@H](CO)NC(=O)[C@@H](NC(=O)[C@H](Cc1ccccc1)NC(=O)[C@@H](NC(=O)CNC(=O)[C@H](Cc1c[nH]cn1)NC(=O)C(C)(C)NC(=O)[C@@H](N)Cc1c[nH]cn1)[C@@H](C)O)[C@@H](C)O)C(C)C)C(=O)N[C@@H](CCC(=O)O)C(=O)NCC(=O)NCC(=O)N1CCC[C@H]1C(=O)N[C@@H](CO)C(=O)N[C@@H](CO)C(=O)NCC(=O)N[C@@H](C)C(=O)N1CCC[C@H]1C(=O)N1CCC[C@H]1C(=O)N1CCC[C@H]1C(=O)N[C@@H](CO)C(N)=O
B2: Compound No. 0134 (peptide)
peptide: H[Aib]HGTFTSDLS[αMeK]ILEK([AEEA-AEEA-γGlu-C20 diacid])KAA[Iva]EFVEWLIEGGPSSGAPPPS-NH2
modifications: N-terminus assumed
SMILES: CC[C@H](C)[C@H](NC(=O)[C@H](CC(C)C)NC(=O)[C@H](Cc1c[nH]c2ccccc12)NC(=O)[C@H](CCC(=O)O)NC(=O)[C@@H](NC(=O)[C@H](Cc1ccccc1)NC(=O)[C@H](CCC(=O)O)NC(=O)[C@](C)(CC)NC(=O)[C@H](C)NC(=O)[C@H](C)NC(=O)[C@H](CCCCN)NC(=O)[C@H](CCCCNC(=O)COCCOCCNC(=O)COCCOCCNC(=O)CC[C@H](NC(=O)CCCCCCCCCCCCCCCCCCC(=O)O)C(=O)O)NC(=O)[C@H](CCC(=O)O)NC(=O)[C@H](CC(C)C)NC(=O)[C@@H](NC(=O)[C@](C)(CCCCN)NC(=O)[C@H](CO)NC(=O)[C@H](CC(C)C)NC(=O)[C@H](CC(=O)O)NC(=O)[C@H](CO)NC(=O)[C@@H](NC(=O)[C@H](Cc1ccccc1)NC(=O)[C@@H](NC(=O)CNC(=O)[C@H](Cc1c[nH]cn1)NC(=O)C(C)(C)NC(=O)[C@@H](N)Cc1c[nH]cn1)[C@@H](C)O)[C@@H](C)O)[C@@H](C)CC)C(C)C)C(=O)N[C@@H](CCC(=O)O)C(=O)NCC(=O)NCC(=O)N1CCC[C@H]1C(=O)N[C@@H](CO)C(=O)N[C@@H](CO)C(=O)NCC(=O)N[C@@H](C)C(=O)N1CCC[C@H]1C(=O)N1CCC[C@H]1C(=O)N1CCC[C@H]1C(=O)N[C@@H](CO)C(N)=O
B3: Compound No. 0108 (peptide)
peptide: H[Aib]HGTFTSDYSKY[αMeL]EK([AEEA-AEEA-γGlu-C20 diacid])KAAQEFVEWLLAGGPSSGAPPPS-NH2
modifications: N-terminus assumed
SMILES: CC(C)C[C@H](NC(=O)[C@H](CC(C)C)NC(=O)[C@H](Cc1c[nH]c2ccccc12)NC(=O)[C@H](CCC(=O)O)NC(=O)[C@@H](NC(=O)[C@H](Cc1ccccc1)NC(=O)[C@H](CCC(=O)O)NC(=O)[C@H](CCC(N)=O)NC(=O)[C@H](C)NC(=O)[C@H](C)NC(=O)[C@H](CCCCN)NC(=O)[C@H](CCCCNC(=O)COCCOCCNC(=O)COCCOCCNC(=O)CC[C@H](NC(=O)CCCCCCCCCCCCCCCCCCC(=O)O)C(=O)O)NC(=O)[C@H](CCC(=O)O)NC(=O)[C@](C)(CC(C)C)NC(=O)[C@H](Cc1ccc(O)cc1)NC(=O)[C@H](CCCCN)NC(=O)[C@H](CO)NC(=O)[C@H](Cc1ccc(O)cc1)NC(=O)[C@H](CC(=O)O)NC(=O)[C@H](CO)NC(=O)[C@@H](NC(=O)[C@H](Cc1ccccc1)NC(=O)[C@@H](NC(=O)CNC(=O)[C@H](Cc1c[nH]cn1)NC(=O)C(C)(C)NC(=O)[C@@H](N)Cc1c[nH]cn1)[C@@H](C)O)[C@@H](C)O)C(C)C)C(=O)N[C@@H](C)C(=O)NCC(=O)NCC(=O)N1CCC[C@H]1C(=O)N[C@@H](CO)C(=O)N[C@@H](CO)C(=O)NCC(=O)N[C@@H](C)C(=O)N1CCC[C@H]1C(=O)N1CCC[C@H]1C(=O)N1CCC[C@H]1C(=O)N[C@@H](CO)C(N)=O
B4: Compound No. 0109 (peptide)
peptide: H[Aib]HGTFTSDYSKYLEK([AEEA-AEEA-γGlu-C20 diacid])[αMeK]AAQEFVEWLLAGGPSSGAPPPS-NH2
modifications: N-terminus assumed
SMILES: CC(C)C[C@H](NC(=O)[C@H](CC(C)C)NC(=O)[C@H](Cc1c[nH]c2ccccc12)NC(=O)[C@H](CCC(=O)O)NC(=O)[C@@H](NC(=O)[C@H](Cc1ccccc1)NC(=O)[C@H](CCC(=O)O)NC(=O)[C@H](CCC(N)=O)NC(=O)[C@H](C)NC(=O)[C@H](C)NC(=O)[C@](C)(CCCCN)NC(=O)[C@H](CCCCNC(=O)COCCOCCNC(=O)COCCOCCNC(=O)CC[C@H](NC(=O)CCCCCCCCCCCCCCCCCCC(=O)O)C(=O)O)NC(=O)[C@H](CCC(=O)O)NC(=O)[C@H](CC(C)C)NC(=O)[C@H](Cc1ccc(O)cc1)NC(=O)[C@H](CCCCN)NC(=O)[C@H](CO)NC(=O)[C@H](Cc1ccc(O)cc1)NC(=O)[C@H](CC(=O)O)NC(=O)[C@H](CO)NC(=O)[C@@H](NC(=O)[C@H](Cc1ccccc1)NC(=O)[C@@H](NC(=O)CNC(=O)[C@H](Cc1c[nH]cn1)NC(=O)C(C)(C)NC(=O)[C@@H](N)Cc1c[nH]cn1)[C@@H](C)O)[C@@H](C)O)C(C)C)C(=O)N[C@@H](C)C(=O)NCC(=O)NCC(=O)N1CCC[C@H]1C(=O)N[C@@H](CO)C(=O)N[C@@H](CO)C(=O)NCC(=O)N[C@@H](C)C(=O)N1CCC[C@H]1C(=O)N1CCC[C@H]1C(=O)N1CCC[C@H]1C(=O)N[C@@H](CO)C(N)=O
B5: Compound No. 0110 (peptide)
peptide: H[Aib]HGTFTSDYSKYLEK([AEEA-AEEA-γGlu-C20 diacid])K[Aib]AQEFVEWLLAGGPSSGAPPPS-NH2
modifications: N-terminus assumed
SMILES: CC(C)C[C@H](NC(=O)[C@H](CC(C)C)NC(=O)[C@H](Cc1c[nH]c2ccccc12)NC(=O)[C@H](CCC(=O)O)NC(=O)[C@@H](NC(=O)[C@H](Cc1ccccc1)NC(=O)[C@H](CCC(=O)O)NC(=O)[C@H](CCC(N)=O)NC(=O)[C@H](C)NC(=O)C(C)(C)NC(=O)[C@H](CCCCN)NC(=O)[C@H](CCCCNC(=O)COCCOCCNC(=O)COCCOCCNC(=O)CC[C@H](NC(=O)CCCCCCCCCCCCCCCCCCC(=O)O)C(=O)O)NC(=O)[C@H](CCC(=O)O)NC(=O)[C@H](CC(C)C)NC(=O)[C@H](Cc1ccc(O)cc1)NC(=O)[C@H](CCCCN)NC(=O)[C@H](CO)NC(=O)[C@H](Cc1ccc(O)cc1)NC(=O)[C@H](CC(=O)O)NC(=O)[C@H](CO)NC(=O)[C@@H](NC(=O)[C@H](Cc1ccccc1)NC(=O)[C@@H](NC(=O)CNC(=O)[C@H](Cc1c[nH]cn1)NC(=O)C(C)(C)NC(=O)[C@@H](N)Cc1c[nH]cn1)[C@@H](C)O)[C@@H](C)O)C(C)C)C(=O)N[C@@H](C)C(=O)NCC(=O)NCC(=O)N1CCC[C@H]1C(=O)N[C@@H](CO)C(=O)N[C@@H](CO)C(=O)NCC(=O)N[C@@H](C)C(=O)N1CCC[C@H]1C(=O)N1CCC[C@H]1C(=O)N1CCC[C@H]1C(=O)N[C@@H](CO)C(N)=O

Biological target: T2, human glucagon-like peptide-1 receptor (human, UniProt P43220 24-463)
Assay: cell-based or functional assay

| Binder | Activity against human GLP-1R (EC50 nM) |
| --- | --- |
| H[Aib]HGTFTSDYSI[αMeL]LEK([AEEA-AEEA-γGlu-C20 diacid])KAA[Iva]EFVEWLLAGGPSSGAPPPS-NH2 [Compound No. 0137] | 0.013 nM |
| H[Aib]HGTFTSDLSI[αMeL]LEK([AEEA-AEEA-γGlu-C20 diacid])KAA[Iva]EFVEWLLAGGPSSGAPPPS-NH2 [Compound No. 0138] | 0.019 nM |
| B1 | 0.016 nM |
| B2 | 0.017 nM |
| H[Aib]HGTFTSDYSILLEK([AEEA-AEEA-γGlu-C20 diacid])KAA[Iva]EFVEWLLAGGPSSGAPPPS-NH2 [Compound No. 0135] | 0.013 nM |

Biological target: T3, human glucagon receptor (human, UniProt P47871 26-477)
T3 sequence (P47871 26-477): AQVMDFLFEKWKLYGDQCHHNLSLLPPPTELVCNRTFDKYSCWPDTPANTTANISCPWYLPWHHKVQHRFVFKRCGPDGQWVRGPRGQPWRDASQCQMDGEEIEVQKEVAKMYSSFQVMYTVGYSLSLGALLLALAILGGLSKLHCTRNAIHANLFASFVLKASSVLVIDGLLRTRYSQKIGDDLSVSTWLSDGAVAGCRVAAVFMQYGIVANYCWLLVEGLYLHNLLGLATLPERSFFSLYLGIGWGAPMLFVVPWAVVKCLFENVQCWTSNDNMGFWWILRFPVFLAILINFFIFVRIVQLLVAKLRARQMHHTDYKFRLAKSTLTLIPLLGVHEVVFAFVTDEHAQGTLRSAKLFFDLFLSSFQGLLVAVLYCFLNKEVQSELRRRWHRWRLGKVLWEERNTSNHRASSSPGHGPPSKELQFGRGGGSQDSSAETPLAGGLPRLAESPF
Assay: cell-based or functional assay

| Binder | Activity against human GCGR (EC50 nM) |
| --- | --- |
| H[Aib]HGTFTSDYSI[αMeL]LEK([AEEA-AEEA-γGlu-C20 diacid])KAA[Iva]EFVEWLLAGGPSSGAPPPS-NH2 [Compound No. 0137] | 0.047 nM |
| H[Aib]HGTFTSDLSI[αMeL]LEK([AEEA-AEEA-γGlu-C20 diacid])KAA[Iva]EFVEWLLAGGPSSGAPPPS-NH2 [Compound No. 0138] | 0.055 nM |
| B1 | 0.03 nM |
| B2 | 0.025 nM |
| H[Aib]HGTFTSDYSILLEK([AEEA-AEEA-γGlu-C20 diacid])KAA[Iva]EFVEWLLAGGPSSGAPPPS-NH2 [Compound No. 0135] | 0.019 nM |

Biological target: T1, human glucose-dependent insulinotropic …
Assay: cell-based or functional assay

| Binder | Activity against human GIPR (EC50 nM) |
| --- | --- |
| H[Aib]HGTFTSDYSI[αMeL]LEK([AEEA-AEEA-γGlu-C20 diacid])KAA[Iva]EFVEWLLAGGPSSGAPPPS-NH2 [Compound No. 0137] | 0.001 nM |
| H[Aib]HGTFTSDLSI[αMeL]LEK([AEEA-AEEA-γGlu-C20 diacid])KAA[Iva]EFVEWLLAGGPSSGAPPPS-NH2 [Compound No. 0138] | 0.0006 nM |
| B1 | 0.002 nM |
| B2 | 0.002 nM |
| H[Aib]HGTFTSDYSILLEK([AEEA-AEEA-γGlu-C20 diacid])KAA[Iva]EFVEWLLAGGPSSGAPPPS-NH2 [Compound No. 0135] | 0.001 nM |

Biological target: T2, human glucagon-like peptide-1 receptor
Assay: cell-based or functional assay
Remark: another data set of the same source

| Binder | Activity against human GLP-1R (EC50 nM) |
| --- | --- |
| B3 | 0.014 nM |
| B4 | 0.011 nM |
| B5 | 0.016 nM |

Biological target: T3, human glucagon receptor
Assay: cell-based or functional assay
Remark: another data set of the same source

| Binder | Activity against human GCGR (EC50 nM) |
| --- | --- |
| B3 | 0.315 nM |
| B4 | 0.031 nM |
| B5 | 0.044 nM |

Biological target: T1, human glucose-dependent insulinotropic …
Assay: cell-based or functional assay
Remark: another data set of the same source

| Binder | Activity against human GIPR (EC50 nM) |
| --- | --- |
| B3 | 0.078 nM |
| B4 | 0.027 nM |
| B5 | 0.043 nM |
